Measurements as given in patent US20140322216A1.

Molecular target: human glypican-3 naturally expressed on the cell surface (HepG2 and other GPC3+ cell lines) (human) (UniProt P51654)
Assay: flow cytometry on HepG2, 1G12 with anti-mouse dye, grey = isotype control; on Hs578T the histogram lies on the control's

Chain of human glypican-3 naturally expressed on the cell surface (HepG2 and other GPC3+ cell lines) (human) (P51654 25-554 limits assumed): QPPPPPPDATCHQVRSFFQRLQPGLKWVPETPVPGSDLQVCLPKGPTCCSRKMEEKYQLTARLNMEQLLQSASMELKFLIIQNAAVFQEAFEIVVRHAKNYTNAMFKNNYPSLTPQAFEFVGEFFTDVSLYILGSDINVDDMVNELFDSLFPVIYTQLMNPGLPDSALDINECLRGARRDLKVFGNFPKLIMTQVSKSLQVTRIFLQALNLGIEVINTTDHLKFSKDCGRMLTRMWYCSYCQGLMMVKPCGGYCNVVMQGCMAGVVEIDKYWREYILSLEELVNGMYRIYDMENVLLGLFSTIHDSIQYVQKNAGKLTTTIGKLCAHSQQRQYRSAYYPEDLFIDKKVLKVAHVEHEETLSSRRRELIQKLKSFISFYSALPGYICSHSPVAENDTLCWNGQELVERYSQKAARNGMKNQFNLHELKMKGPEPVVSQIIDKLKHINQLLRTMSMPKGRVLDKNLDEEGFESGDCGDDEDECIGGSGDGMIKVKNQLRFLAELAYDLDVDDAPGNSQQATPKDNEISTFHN

commercial monoclonal anti-human GPC3 antibody (clone 1G12)
% of cells in the positive gate: 46.1%
